The record followed here is paper PMC8115288, “INI1/SMARCB1 Rpt1 domain mimics TAR RNA in binding to integrase to facilitate HIV-1 replication” (Nature Communications, 2021).

For the assay, the target named is T1, GST-CTD (C-terminal domain of HIV-1 integrase, aa 201-288) (HIV-1 (Hx3B), UniProt P04585 1348-1435).
T1 construct: Integrase (IN) of HIV-1, C-terminal domain aa 201-288; template HIV-1 Hx3B DNA (P04585 is isolate HXB2); also called IN-CTD; GST-IN-CTD(aa 201-288); source: pGEX3xPL construct; on glutathione sepharose 4B beads (pull-down) or as GST-tagged protein (AlphaScreen)
Nature of the assay: AlphaScreen or HTRF; competition: GST-CTD (0.03 uM) with Bio-TAR RNA (0.1 uM), increasing INI1(183-304) as third component; low salt; four-parameter dose-response fit. Particulars: both partners purified. (In general: In Alpha technology, singlet oxygen from a donor bead excites a nearby acceptor bead.)

B1: His6-SUMO-INI1_(183-304) (domain or fragment, UniProt Q12824 183-304, looked up)
chain: PEVLVPIRLDMEIDGQKLRDAFTWNMNEKLMTPEMFSEILCDDLDLNPLTFVPAIASAIRQQIESYPTDSILEDQSDQRVIIKLNIHVGNISLVDQFEWDMSEKENSPEKFALKLCSELGLG
notes: INI1/SMARCB1, residues 183-304 (Rpt1, linker and part of Rpt2); Vector pET28a-h6-smt3; also called 6His-SUMO-INI1_(183-304); source: E. coli; clarified bacterial cell lysate for the pull-down
In the case of B1, the IC50 – broadly, the concentration needed to halve the response being measured – is roughly 5 nM.
